In series [1] the target is hPcf11 (in CF II);hClp1 (human;human) (UniProt O94913+Q92989). Put plainly: filter binding. As to conditions: cap analog.
A further series addresses T1, hClp1 (human) (UniProt Q92989).
T1 sequence: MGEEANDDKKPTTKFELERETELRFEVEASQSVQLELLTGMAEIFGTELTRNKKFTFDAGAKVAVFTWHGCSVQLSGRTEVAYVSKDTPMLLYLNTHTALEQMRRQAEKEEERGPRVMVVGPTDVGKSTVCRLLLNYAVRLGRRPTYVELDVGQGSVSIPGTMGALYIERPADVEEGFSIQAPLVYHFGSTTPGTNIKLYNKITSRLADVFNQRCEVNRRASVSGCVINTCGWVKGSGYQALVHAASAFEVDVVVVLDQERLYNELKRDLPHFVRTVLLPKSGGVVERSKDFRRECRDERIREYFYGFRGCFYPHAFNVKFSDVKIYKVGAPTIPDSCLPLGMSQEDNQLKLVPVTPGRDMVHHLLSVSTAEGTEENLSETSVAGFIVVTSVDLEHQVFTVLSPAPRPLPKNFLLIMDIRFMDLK
In words: filter binding. To be noted: cap analog.

Chain of hPcf11 (in CF II);hClp1 (human;human) (O94913 whole entry, one chain of several): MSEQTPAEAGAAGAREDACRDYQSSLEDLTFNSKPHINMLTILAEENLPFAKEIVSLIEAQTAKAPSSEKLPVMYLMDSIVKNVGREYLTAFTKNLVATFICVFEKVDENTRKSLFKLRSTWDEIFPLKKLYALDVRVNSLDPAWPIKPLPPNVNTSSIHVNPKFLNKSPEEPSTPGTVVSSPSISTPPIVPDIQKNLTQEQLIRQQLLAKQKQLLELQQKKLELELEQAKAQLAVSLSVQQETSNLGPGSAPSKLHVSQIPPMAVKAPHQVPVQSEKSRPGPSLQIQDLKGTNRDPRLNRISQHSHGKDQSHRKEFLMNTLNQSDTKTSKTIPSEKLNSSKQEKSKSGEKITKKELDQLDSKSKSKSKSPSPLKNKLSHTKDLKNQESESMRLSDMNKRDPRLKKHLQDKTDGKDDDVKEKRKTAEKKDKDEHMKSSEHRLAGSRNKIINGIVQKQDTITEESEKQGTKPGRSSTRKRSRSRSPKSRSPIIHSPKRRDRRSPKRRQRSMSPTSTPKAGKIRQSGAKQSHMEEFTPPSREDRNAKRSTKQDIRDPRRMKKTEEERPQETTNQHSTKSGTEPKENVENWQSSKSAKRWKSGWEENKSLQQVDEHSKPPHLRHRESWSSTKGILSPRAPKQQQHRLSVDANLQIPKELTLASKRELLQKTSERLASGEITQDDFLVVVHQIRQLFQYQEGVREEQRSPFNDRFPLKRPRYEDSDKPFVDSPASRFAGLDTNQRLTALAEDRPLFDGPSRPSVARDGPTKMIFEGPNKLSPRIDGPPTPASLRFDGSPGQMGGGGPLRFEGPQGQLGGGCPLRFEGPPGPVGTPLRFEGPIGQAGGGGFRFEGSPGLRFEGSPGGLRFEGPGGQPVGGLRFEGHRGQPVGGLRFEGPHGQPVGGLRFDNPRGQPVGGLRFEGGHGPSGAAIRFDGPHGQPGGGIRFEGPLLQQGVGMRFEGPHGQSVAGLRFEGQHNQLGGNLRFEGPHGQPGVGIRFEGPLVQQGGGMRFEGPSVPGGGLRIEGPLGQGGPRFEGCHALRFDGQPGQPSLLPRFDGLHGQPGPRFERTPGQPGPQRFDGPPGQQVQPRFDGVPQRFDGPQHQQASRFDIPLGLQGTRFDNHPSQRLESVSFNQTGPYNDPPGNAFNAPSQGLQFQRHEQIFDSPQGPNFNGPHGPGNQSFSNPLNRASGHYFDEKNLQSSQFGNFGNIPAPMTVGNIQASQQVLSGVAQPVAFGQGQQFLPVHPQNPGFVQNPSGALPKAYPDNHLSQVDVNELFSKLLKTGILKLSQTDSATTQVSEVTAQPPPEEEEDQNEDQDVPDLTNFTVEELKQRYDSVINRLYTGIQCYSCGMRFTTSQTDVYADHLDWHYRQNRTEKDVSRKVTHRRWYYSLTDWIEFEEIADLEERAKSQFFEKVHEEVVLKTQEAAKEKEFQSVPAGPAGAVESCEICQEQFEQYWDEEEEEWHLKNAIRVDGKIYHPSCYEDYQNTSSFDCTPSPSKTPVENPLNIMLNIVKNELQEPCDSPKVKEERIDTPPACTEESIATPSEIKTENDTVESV

Substance L3 RNA returned a K half in series [1] of 0.9 nM.
With SV40 late RNA, the K half was found to be 140 nM with hClp1 (human) and 0.4 nM in series [1].

The values above are taken from article doi:10.1101/366336.
